From patent publication US7211395 (dated 2007)
Bridges are numbered along the chain shown (N, C = ends).

What was measured:
[1] = biological target: T1, pig serum albumin (pig, UniProt P08835); assay: FP, pH 6.2, no NaCl
T1 chain: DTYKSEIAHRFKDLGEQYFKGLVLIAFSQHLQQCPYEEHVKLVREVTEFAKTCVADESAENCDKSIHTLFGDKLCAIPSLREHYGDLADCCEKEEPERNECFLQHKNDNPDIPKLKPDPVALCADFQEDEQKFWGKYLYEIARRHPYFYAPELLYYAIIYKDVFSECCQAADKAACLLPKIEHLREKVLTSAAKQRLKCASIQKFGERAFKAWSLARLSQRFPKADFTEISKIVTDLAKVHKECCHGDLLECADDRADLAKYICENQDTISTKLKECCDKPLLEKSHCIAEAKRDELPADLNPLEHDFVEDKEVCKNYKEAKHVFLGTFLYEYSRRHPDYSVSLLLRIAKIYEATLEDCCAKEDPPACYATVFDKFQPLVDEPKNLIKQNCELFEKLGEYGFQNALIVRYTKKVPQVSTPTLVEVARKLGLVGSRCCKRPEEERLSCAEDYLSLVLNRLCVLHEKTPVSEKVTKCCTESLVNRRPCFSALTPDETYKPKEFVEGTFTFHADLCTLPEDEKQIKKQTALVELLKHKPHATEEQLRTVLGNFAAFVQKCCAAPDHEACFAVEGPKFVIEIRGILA

[2] = biological target: T2, rabbit serum albumin (rabbit, UniProt P49065); assay: FP, pH 6.2, no NaCl
T2 chain: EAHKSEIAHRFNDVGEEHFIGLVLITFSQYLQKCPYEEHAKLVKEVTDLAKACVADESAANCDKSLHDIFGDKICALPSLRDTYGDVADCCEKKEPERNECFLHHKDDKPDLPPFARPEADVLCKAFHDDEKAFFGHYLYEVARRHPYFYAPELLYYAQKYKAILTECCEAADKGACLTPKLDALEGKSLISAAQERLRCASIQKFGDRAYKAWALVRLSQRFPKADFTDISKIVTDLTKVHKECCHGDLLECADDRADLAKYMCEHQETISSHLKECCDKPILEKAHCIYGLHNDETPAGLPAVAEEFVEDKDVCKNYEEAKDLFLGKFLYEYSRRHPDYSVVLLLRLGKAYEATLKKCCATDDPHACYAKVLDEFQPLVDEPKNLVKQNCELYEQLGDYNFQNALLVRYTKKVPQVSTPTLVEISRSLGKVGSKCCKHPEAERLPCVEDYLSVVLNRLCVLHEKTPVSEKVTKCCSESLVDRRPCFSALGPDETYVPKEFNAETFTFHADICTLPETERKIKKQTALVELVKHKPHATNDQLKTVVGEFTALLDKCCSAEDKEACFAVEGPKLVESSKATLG

[3] = biological target: T3, chicken ovalbumin (chicken, UniProt P01012); assay: FP, pH 6.2, no NaCl
T3 chain: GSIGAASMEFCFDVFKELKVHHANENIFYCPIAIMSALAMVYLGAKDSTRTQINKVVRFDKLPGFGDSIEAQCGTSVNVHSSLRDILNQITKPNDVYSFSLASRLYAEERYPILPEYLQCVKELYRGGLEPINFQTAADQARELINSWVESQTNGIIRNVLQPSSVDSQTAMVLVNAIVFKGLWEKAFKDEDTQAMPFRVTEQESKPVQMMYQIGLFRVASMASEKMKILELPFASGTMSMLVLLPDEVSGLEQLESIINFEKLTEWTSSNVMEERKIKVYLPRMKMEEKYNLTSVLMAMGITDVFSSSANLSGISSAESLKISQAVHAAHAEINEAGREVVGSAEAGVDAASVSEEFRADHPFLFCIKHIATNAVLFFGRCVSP

[4] = biological target: T3, chicken ovalbumin; assay: FP, PBS pH 7.4

B1: DX-236 (peptide)
chain: Ac-AEGTGDFWFCDRIAWYPQHLCEFLDPEGGGK(fluorescein)-NH2
modifications: disulfide 10-21 (inferred)
Kd [1]: 500 nM
Kd [2]: 500 nM
Kd [3]: > 200000 nM
Kd [4]: > 200000 nM
